Molecular target: Non-muscle actin (99% pure; 80% β-actin, 20% γ-actin), polymerized (UniProt P60709)
Experiment: co-sedimentation; actin filaments first bundled with α-actinin for 30 min at room temperature, CRP1 then added for a further 30 min, 10,000 x g; supernatant and pellet on gel, Gelcode Blue

Substance “α-actinin purified from chicken gizzard (from UniProt P05094 1-893) (natural protein)” has a fold increase of α-actinin in the actin bundles with CRP1 added, against without CRP1 of 2 fold.

Reference: publication PMC1318456
